± gives the standard error. Fewer inactive variants are shown than the library holds.
B1: glmS ribozyme (parent)
chain: AUAAAAGCGCCAGAACUACAGAAAUGUAGUUGACGAGGAGGAGGUUUAUCGAAUUUUCGGCGGAUGCCUCCAAA

Key:
Conditions in all cases: with glucosamine-6-phosphate
[1] = variants of: B1; test: self-cleavage kobs at 640 uM GlcN6P; higher = faster cleavage; RNA array
How it was run: (§1)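 Sequenced MiSeq chips were the platform: E. coli RNA polymerase transcribed barcoded ribozyme variants on them in situ, and a hybridised Cy3 probe tracked these at 37 °C. After glucosamine-6-phosphate (40 μM to 10 mM) in HEPES/KCl/Mg(OAc)2 buffer was flowed in, tiles were imaged over ~14 h. Signals normalised to baseline and to non-cleaving reference variants were reduced to per-tile medians and fit to one- or two-exponential decays to obtain kobs. kcat and KM were derived through weighted Michaelis–Menten fits across concentrations.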

[2] = variants of: B1; test: self-cleavage kobs at 2500 uM GlcN6P; higher = faster cleavage; RNA array
How it was run: as §1

[3] = variants of: B1; test: self-cleavage kobs at 10000 uM GlcN6P; higher = faster cleavage; RNA array
How it was run: as §1

Variant | self-cleavage kobs at 640 uM GlcN6P [1] [s⁻¹] | self-cleavage kobs at 2500 uM GlcN6P [2] [s⁻¹] | self-cleavage kobs at 10000 uM GlcN6P [3] [s⁻¹]
A36G G38U C50A G62A | < 1e-05 | – | –
U47C U49G C50U | < 1e-05 | < 1e-05 | –
C8U U30A U31C A48U C68U | < 1e-05 | < 1e-05 | –
A15U A52U G66C C71U | < 1e-05 | – | –
U31A A36C G37U U49C | < 1e-05 | – | –
G13C A33G G40U U49G G63A | < 1e-05 | – | –
G9U G13C G43A | < 1e-05 | – | –
C10A A36U G62A | < 1e-05 | – | –
G35C G40A U46G G66A | < 1e-05 | < 1e-05 | –
C8G G41A A52U | < 1e-05 | < 1e-05 | –
A6G A14G A33U | < 1e-05 | – | –
U46A C68G C71G | 0.00075 ± 0.00031 | – | –
G13A G44C | < 1e-05 | – | –
A12G C34U | < 1e-05 | – | < 1e-05
G40A U57A C71U | 6.1e-05 ± 2.3e-05 | 0.000149 ± 3.4e-05 | –
C8A C11A G44A | < 1e-05 | – | –
G35A G40U C68U | < 1e-05 | – | –
G13U G40U G63C | < 1e-05 | < 1e-05 | –
A14G C16U U45C | 0.000986 ± 0.00024 | 0.00371 ± 0.00065 | –
C11G C71G | 0.000382 ± 0.00018 | – | –
G13A U30G G41U U46C G63C | < 1e-05 | < 1e-05 | –
G40C G66A C70A | 9.02e-05 ± 2.4e-05 | 0.000246 ± 6.6e-05 | 0.000559 ± 0.0001

Variant | self-cleavage kobs at 640 uM GlcN6P [1] [s⁻¹] | self-cleavage kobs at 2500 uM GlcN6P [2] [s⁻¹] | self-cleavage kobs at 10000 uM GlcN6P [3] [s⁻¹]
A15U G32A U46G C50G | 8.2e-05 ± 2.3e-05 | – | –
G13U U31G A48G A52U | < 1e-05 | – | –
A12U U65C C70U | 0.000322 ± 8.6e-05 | – | –
C8G G43A | < 1e-05 | < 1e-05 | –
A12G G29A A36G U49C U57G C70A | < 1e-05 | – | –
G37C G59C | < 1e-05 | < 1e-05 | < 1e-05
U54A U65A C68G | 5.85e-05 ± 2.8e-05 | 0.000194 ± 6.9e-05 | –
G9A A15U C16A G63C C68U | < 1e-05 | – | –
G32C U47G G59C | < 1e-05 | < 1e-05 | –
G41U U47G A53U | 9.96e-05 ± 2.8e-05 | 0.000276 ± 6.9e-05 | –
C8A C11A G37U G41C A53C G63C | < 1e-05 | < 1e-05 | –
G43U A52C G66C C68G | < 1e-05 | < 1e-05 | –
G44U A48G C50G | < 1e-05 | < 1e-05 | < 1e-05
A6G A14C G38U | < 1e-05 | – | < 1e-05
C8U C11U U55A G62A | < 1e-05 | < 1e-05 | –
C50G G60C C70A | 0.000161 ± 5.8e-05 | 5.41e-05 ± 2.7e-05 | –
U30A C34U G41C G51A | < 1e-05 | – | –
A12U U47G A52U C61U | < 1e-05 | – | –
C16A U56G U65G | 5.32e-05 ± 2.4e-05 | 0.000165 ± 5.6e-05 | –
C11U G41A G60U G63U C70U | < 1e-05 | < 1e-05 | –
C11G U30A A33C | < 1e-05 | < 1e-05 | –
G7U G9A G40C | < 1e-05 | < 1e-05 | –

Variant | self-cleavage kobs at 640 uM GlcN6P [1] [s⁻¹] | self-cleavage kobs at 2500 uM GlcN6P [2] [s⁻¹] | self-cleavage kobs at 10000 uM GlcN6P [3] [s⁻¹]
U55G C67A C68G | 8.64e-05 ± 2.7e-05 | 7.14e-05 ± 1.6e-05 | –
G37A G40U G43C | < 1e-05 | – | –
G35U G51A G63A C67A | < 1e-05 | < 1e-05 | –
C8G G32U G40A G44C C58U | < 1e-05 | < 1e-05 | –
A12G A39G C50A | < 1e-05 | – | –
A6U C34G U47G C67U C68A | 0.000407 ± 0.00013 | 8.02e-05 ± 2.6e-05 | –
G44A A48U U56G | < 1e-05 | < 1e-05 | –
G9A G60A C68G | < 1e-05 | – | –
C10A A15G G32U C70G | 0.000197 ± 7.6e-05 | – | –
G29U G37A U49A C58G G62U | < 1e-05 | – | –
A12U G29A U31C | 0.000169 ± 4.1e-05 | 0.00041 ± 0.00015 | 0.000943 ± 0.00018
C8U A14C A15C | < 1e-05 | – | –
C8A G32A A36C G41A A42U | < 1e-05 | < 1e-05 | –
A14C C16U G44U U69G | < 1e-05 | – | –
C16A A42C C71U | < 1e-05 | < 1e-05 | –
G38C A42G U49G A52G G63C | < 1e-05 | < 1e-05 | –
A14U C50G G62A | 0.000193 ± 8.2e-05 | – | –
C10G G13A G43A C50U | < 1e-05 | < 1e-05 | < 1e-05
G35A A36C C61G A64G | < 1e-05 | – | –
G7A C8A G9A G62A | < 1e-05 | – | < 1e-05

— the supplement of paper PMC7125110
